For orientation: IC50 means the concentration at which inhibition is half-maximal. Read a high IC50 as lower potency.

Assay [1] deals with T1, murine TNF (mouse, UniProt P06804 80-235).
T1 construct: also called mouse TNFα; TNFα
T1 sequence (looked up): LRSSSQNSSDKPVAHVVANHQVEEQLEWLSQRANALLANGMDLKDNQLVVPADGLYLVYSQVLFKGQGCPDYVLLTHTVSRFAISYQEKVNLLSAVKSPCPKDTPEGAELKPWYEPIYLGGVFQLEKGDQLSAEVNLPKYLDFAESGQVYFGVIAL
As to the kind of experiment: assay not described; table titled 'Source And Binding Information'.

Assay [2] addresses T2, murine IL-17 (mouse, UniProt Q62386 26-158).
T2 construct: also called mouse IL-17
T2 sequence (looked up): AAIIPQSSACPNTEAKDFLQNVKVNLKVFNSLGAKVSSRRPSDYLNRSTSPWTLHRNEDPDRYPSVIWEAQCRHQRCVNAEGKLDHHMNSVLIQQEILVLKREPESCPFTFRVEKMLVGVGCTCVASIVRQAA
The assay is described as above.

B1: anti-murine TNF antibody 8C11 (antibody, mouse IgG2c, V domains shown)
VH: EFQLQQSGPELVKPGASVRISCKASGYSFTDYNMNWVKQSNGKSLEWVGVINPNYGSSTYNQKFKGKATLTVDQSSSTAYMQLNSLTSEDSAVYYCARKWGQLGRGFFDVWGTGTTVTVSS
VL: QIVLSQSPAILSASPGEKVTMTCRASSSVSYMHWFQQKPGSSPKPWIYATSNLASGVPARFSGSGSGTSYSLTISRVEAEDAATYYCQQWSSSPLTFGAGTKLELKR
notes: also called 8C11 anti-TNF antibody; anti-TNFα antibody 8C11
For B1, in assay [1], the IC50 turned out to be 2 nM.

B2: anti-mouse TNF/IL-17 DVD-Ig protein 8C11/10F7M11 (bispecific antibody, human IgG1, kappa, L234A L235A)
heavy: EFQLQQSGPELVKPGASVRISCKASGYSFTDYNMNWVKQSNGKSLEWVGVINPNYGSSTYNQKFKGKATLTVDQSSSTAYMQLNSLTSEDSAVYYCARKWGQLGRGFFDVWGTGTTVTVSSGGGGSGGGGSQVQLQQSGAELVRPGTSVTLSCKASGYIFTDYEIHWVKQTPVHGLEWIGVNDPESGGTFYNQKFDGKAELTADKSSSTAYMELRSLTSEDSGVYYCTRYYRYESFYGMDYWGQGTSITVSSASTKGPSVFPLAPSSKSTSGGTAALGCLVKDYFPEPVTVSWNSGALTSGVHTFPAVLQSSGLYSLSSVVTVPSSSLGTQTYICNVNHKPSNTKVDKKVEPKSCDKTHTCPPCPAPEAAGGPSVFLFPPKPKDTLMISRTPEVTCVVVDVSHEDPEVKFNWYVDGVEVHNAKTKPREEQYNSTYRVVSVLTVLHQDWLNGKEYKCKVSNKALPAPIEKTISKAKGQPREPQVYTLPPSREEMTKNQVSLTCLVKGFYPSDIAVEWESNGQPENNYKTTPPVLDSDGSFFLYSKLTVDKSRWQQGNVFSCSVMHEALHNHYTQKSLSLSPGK
light: QIVLSQSPAILSASPGEKVTMTCRASSSVSYMHWFQQKPGSSPKPWIYATSNLASGVPARFSGSGSGTSYSLTISRVEAEDAATYYCQQWSSSPLTFGAGTKLELKRGGSGGGGSGQIVLTQSPAIMSASPGEKVTMTCSASSSISYIYWFQQKPGTSPKRWIYATFELASGVPARFSGSGSGTSYSLTISSMEAEDAATYYCHQRSSYPWTFGGGSKLEIKRTVAAPSVFIFPPSDEQLKSGTASVVCLLNNFYPREAKVQWKVDNALQSGNSQESVTEQDSKDSTYSLSSTLTLSKADYEKHKVYACEVTHQGLSSPVTKSFNRGEC
notes: The constant regions of the protein actually assayed are therefore uncertain; also called 8C11/10F7-DVD-Ig protein; 8C11/10F7M11 anti-TNF/IL-17 DVD-Ig protein
Take B2: the values for the IC50 in assay [2] and in assay [1] were 0.13 nM and 2 nM, respectively.

Values taken from patent US20160000936A1 (AbbVie / Abbott, published 2016).
